Experiments:
glu-plasminogen = biological target: T1, glu-plasminogen (Homo sapiens, UniProt P00747); test: Coupled enzyme assay: activation of glu-plasminogen (S2251), with and without fibrinogen; format: biochemical; details: for Km / kcat: GLU-plasminogen (S2251) activation
T1 construct: Glu-plasminogen was purified from fresh frozen plasma; from tissue; host or cells: fresh frozen plasma (lysine-Sepharose, then benzamidine-Sepharose)
Procedure: Glu-plasminogen was purified from fresh frozen plasma thawed at 37° C. using a modification of the method of Deutsch and Mertz (Deutsch et al., Science 170:1095–1096 (1970), herein incorporated by reference). Plasma was passed over a lysine-Sepharose column and the column washed with 0.3 M sodium phosphate, pH 7.4, 3 mM EDTA. Plasminogen was eluted from the column with 0.2 M epsilon-aminocaproic acid, 3 mM EDTA, pH 7.4 Contaminant plasmin was removed by passing the eluted column over benzamidine sepharose 2B. The plasminogen obtained was subsequently dialyzed before use against 10 mM sodium phosphate, pH 7.4, 0.15 M NaCl.
In the coupled enzyme assay, t-PA and S—NO-t-PA activities were assayed using the […] S2251. In selected experiments, fibrinogen stimulation of enzymatic activity was assessed at a fibrinogen concentrations of 1 mg./ml. Substrate hydrolysis was measured spectrophotometrically with a Dynatech MR 5000 Card Reader (Dynatech, Chantilly, Va.) in TBS, pH 7.4, at 25° C. Initial reaction velocity was determined from the slope of the plot of absorbance (at 405 nm)/time vs. time (Randy, M. Biochim. Biophysica Acta 704:461–469 (1982)) using glu-plasminogen concentrations ranging from 0.1–10 μM at an S2251 concentrations of 0.8 mM. Kinetic parameters were determined from initial rates by double reciprocal plot analysis.

gel-filtered platelets [1] = test: Intracellular platelet cyclic GMP (radioimmunoassay); format: cell-based, human
Procedure: (§1) Venous blood, anticoagulated with 1-mM trisodium citrate, was obtained from volunteers who had not consumed acetylsalicylic acid for at least ten days. Platelet-rich plasma (PRP) was prepared by centrifugation at 150 g for ten minutes at 25° C. Platelet counts were determined with a Coulter counter (model ZM; Coulter Electronics, Hialeah, Fla.).
(§2) Platelets were gel-filtered on a 4× 10 cm column of Sepharose 2B in Tyrode's Hepes buffer as described previously (Hawiger et al., Nature 2831:195–198 (1980), herein incorporated by reference). Platelets were typically suspended at a concentration of 1.5×10^8/ml and were used within 30 minutes of preparation. Platelet aggregation was monitored using a standard nephelometric technique (Born, et al., J. Physiol. 168:178–195 (1963), herein incorporated by reference), in which 0.3-ml aliquots of gel-filtered platelets were incubated at 37° C. and stirred at 1000 rpm in a PAP-4 aggregometer (Biodata, Hatboro, Pa.). Gel-filtered platelets were preincubated with t-PA or S—NO-t-PA for up to 45 minutes and aggregations induced with 5 μM ADP or 0.025 U/ml thrombin.
The antiplatelet actions of S-nitrosothiols are mediated by cyclic GMP. Measurements of cGMP were performed by radioimmunoassay. Gel-filtered platelets were pre-incubated for 180 seconds with S—NO-t-PA (9 μM), and related controls. […]

gel-filtered platelets [2] = test: Platelet aggregation (nephelometric aggregometry); format: cell-based, human; details: 5 μM ADP
Procedure: as §1, §2
Aggregations were quantified by measuring the maximal rate or extent of light transmittance and expressed as a normalized value relative to control aggregations.
The effect of S-nitroso-BSA on platelet aggregation was studied, using a gel-filtered platelet preparation, as previously described (Hawiger et al., Nature 2831:195 (1980)) and suspended at 150,000 platelets/ul in HEPES buffer, pH 7.35. S—NO-BSA was incubated with platelets for ten minutes at 37° C. in a PAP-4 aggregometer (BioData, Hatboro, Pa.), after which aggregations were induced with 5 μM ADP. Aggregations were quantified by measuring the extent of change of light transmittance and expressed as a normalized value relative to control aggregations.

[3] = test system: endothelium-denuded rabbit aortic strips; test: Vessel relaxation bioassay; format: cell-based; details: for % Relaxation: 150 nM, contraction with 1 μM epinephrine, mean ±S.D., n=4
Procedure: New Zealand White female rabbits weighing 3–4 kg were anesthetized with 30 mg/kg IV sodium pentobarbital. Descending thoracic aortae were isolated and placed immediately in a cold physiologic salt solution (Kreb's) (mM): NaCl, 118; CKl, 4.7; CaCl2, 2.5; MgSO4, 1.2; KH2PO4, 1.2; NaHCO3, 12.5; and D-glucose, 11.0. The vessels were cleaned of adherent connective tissue, and the endothelium removed by gentle rubbing with a cotton tipped applicator inserted into the lumen, after which the vessel was cut into 5 mm rings. The rings were mounted on stirrups and connected to transducers (model FT03C Grass Instruments, Quincy, Mass.) by which changes in isometric tension were recorded.
Samples were added to a standard bioassay in which vessel rings were suspended in glass chambers containing seven mil of oxygenated Kreb's buffer, in a standard bioassay (Cook et al., Am. J. Physiol. 28:H804 (1989), herein incorporated by reference). Sustained contractions, to 2 gm tension, were induced with 1 μM epinephrine, after which the effects of t-PA and S—NO-t-PA were tested. In certain experiments the guanylate cyclase inhibitor, methylene blue, was preincubated with vessel rings for 15 minutes prior to initiation of contractions.
The vasodilatory actions of S-nitroso-BSA were examined in a standard bioassay containing endothelium-denuded rabbit aortic strips in Kreb's buffer, pH 7.5, at 37°, as described in Example 6.
In vessel experiments, relaxations to S—NO-BSA are expressed as-percent of tone induced by 1.0 μM norepinephrine.

T1 sequence (P00747 20-810 limits assumed): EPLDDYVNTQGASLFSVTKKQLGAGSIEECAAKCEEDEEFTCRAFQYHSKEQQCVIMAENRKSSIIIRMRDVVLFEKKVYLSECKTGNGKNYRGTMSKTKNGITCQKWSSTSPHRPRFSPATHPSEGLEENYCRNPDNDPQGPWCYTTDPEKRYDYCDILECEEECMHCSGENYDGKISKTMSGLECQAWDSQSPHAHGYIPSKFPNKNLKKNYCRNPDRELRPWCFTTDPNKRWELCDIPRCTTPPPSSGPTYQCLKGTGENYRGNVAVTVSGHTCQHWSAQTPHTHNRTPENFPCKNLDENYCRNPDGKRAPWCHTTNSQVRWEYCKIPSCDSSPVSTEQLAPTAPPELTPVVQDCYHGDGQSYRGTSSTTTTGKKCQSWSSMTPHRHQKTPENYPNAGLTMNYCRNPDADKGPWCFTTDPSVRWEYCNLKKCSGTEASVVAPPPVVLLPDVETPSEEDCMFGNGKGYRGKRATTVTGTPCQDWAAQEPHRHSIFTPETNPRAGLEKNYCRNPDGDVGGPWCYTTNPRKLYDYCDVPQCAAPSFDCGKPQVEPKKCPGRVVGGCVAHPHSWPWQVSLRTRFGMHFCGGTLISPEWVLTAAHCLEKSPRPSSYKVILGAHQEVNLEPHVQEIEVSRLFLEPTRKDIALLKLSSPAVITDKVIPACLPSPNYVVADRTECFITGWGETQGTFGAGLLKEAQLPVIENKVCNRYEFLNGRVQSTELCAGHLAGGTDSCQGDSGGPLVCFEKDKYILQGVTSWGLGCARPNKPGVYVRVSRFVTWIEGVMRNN

Row | fibrinogen stimulation greater than t-PA (glu-plasminogen; 0.1 μM plasminogen, fibrinogen 1 mg./ml) | degree of fibrinogen stimulation compared with wild type t-PA (glu-plasminogen; physiologic (1 μM) plasminogen) | relaxations in presence of guanylate cyclase inhibitor methylene blue ([3]; methylene blue preincubated 15 minutes) | Substance | Km (glu-plasminogen) | kcat (glu-plasminogen) | catalytic efficiency greater than that of native t-PA (glu-plasminogen; plasminogen activation) | increase in intracellular cyclic GMP above basal levels (gel-filtered platelets [1]; 9 μM, 180 seconds, basal in the presence of t-PA) | elevation in platelet cGMP after preincubation with methylene blue (gel-filtered platelets [1]; methylene blue 10 μM for ten minutes) | effect on platelet aggregation, synthesized with authentic EDRF (gel-filtered platelets [2]; 333 nM, preincubated ten minutes) | inhibition in rate and extent of aggregation (gel-filtered platelets [2]; 1.4 μM, mean ±S.D., n=4) | % Relaxation [3]
1 | 3.5 fold | equivalent | attenuated | S—NO-t-PA: derived from the nitrosylation of tissue-type plasminogen activator (t-PA) | 3.8 µM | 0.262 s⁻¹ | 23% | 85% | entirely prevented | inhibition of platelet aggregation | 50±16% | 20 ± 7 %
2 | – | – | – | t-PA: tissue-type plasminogen activator, provided by Genentech | 3.5 µM | 0.200 s⁻¹ | – | – | – | – | – | 2.5 ± 4%

Source: US7033999B2, “Nitrosated and nitrosylated heme proteins” (Brigham and Women's Hospital, priority 1991, dated 2006)
